Assay results reported in the supplement of paper PMC5998384.

Legend:
HeLa Kyoto [1] = assay: solubility in G1/S (NP-40 vs SDS abundance) (log2 ratio); higher = more soluble; details: cell cycle stage: G1/S
HeLa Kyoto [2] = assay: melting temperature (median over replicates), in situ; higher = more thermally stable
HeLa Kyoto [3] = assay: solubility change mitosis vs G1/S (difference of NP-40 vs SDS log2 ratios) (log2 ratio difference); higher = more soluble in mitosis
HeLa Kyoto [4] = assay: thermal stability score vs G1/S (z-score of summed log2 fold changes over temperatures); higher = more thermally stable than in G1/S
[5] = cell cycle stage: early G1 (4.5 h after nocodazole release)
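Throughout, for melting temperature (median over replicates), in situ: HeLa Kyoto cells synchronized by double thymidine or nocodazole block, proteins quantified by TMT10plex mass spectrometry, three independent biological replicates.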
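Throughout, for solubility change mitosis vs G1/S (difference of NP-40 vs SDS log2 ratios): synchronized HeLa Kyoto cells (double thymidine block for G1/S, nocodazole release for mitosis), protein amounts in NP-40 versus SDS lysates quantified by mass spectrometry, three biological replicates.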
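Throughout, for solubility in G1/S (NP-40 vs SDS abundance): HeLa Kyoto cells arrested at G1/S by double thymidine block, proteins quantified by TMT10plex mass spectrometry in mild NP-40 versus SDS extracts, three biological replicates.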
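Throughout, for thermal stability score vs G1/S (z-score of summed log2 fold changes over temperatures): synchronized HeLa Kyoto cells, proteins quantified by TMT10plex mass spectrometry, three biological replicates, mitosis taken 0.5 h after nocodazole release, G1/S directly after double thymidine block.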

| Sequence | solubility in G1/S (log2) (HeLa Kyoto [1]) | melting temperature (HeLa Kyoto [2]; cell cycle stage: G1/S) [°C] | melting temperature (HeLa Kyoto [2]; cell cycle stage: mitosis) [°C] | solubility change mitosis (log2) (HeLa Kyoto [3]) | thermal stability score (HeLa Kyoto [4]; [5]) | thermal stability score (HeLa Kyoto [4]; cell cycle stage: mitosis) |
| --- | --- | --- | --- | --- | --- | --- |
| MAEGEDVGWWRSWLQQSYQAVKEKSSEALEFMKRDLTEFTQVVQHDTACTIAATASVVKEKLATEGSSGATEKMKKGLSDFLGVISDTFAPSPDKTIDCDVITLMGTPSGTAEPYDGTKARLYSLQSDPATYCNEPDGPPELFDAWLSQFCLEEKKGEISELLVGSPSIRALYTKMVPAAVSHSEFWHRYFYKVHQLEQEQARRDALKQRAEQSISEEPGWEEEEEELMGISPISPKEAKVPVAKISTFPEGEPGPQSPCEENLVTSVEPPAEVTPSESSESISLVTQIANPATAPEARVLPKDLSQKLLEASLEEQGLAVDVGETGPSPPIHSKPLTPAGHTGGPEPRPPARVETLREEAPTDLRVFELNSDSGKSTPSNNGKKGSSTDISEDWEKDFDLDMTEEEVQMALSKVDASGELEDVEWEDWE [BSDC1] | 0.378 | 53.3 | 53.5 | -0.201 | -1.16 | -2.92 |
| MAAAGAAATHLEVARGKRAALFFAAVAIVLGLPLWWKTTETYRASLPYSQISGLNALQLRLMVPVTVVFTRESVPLDDQEKLPFTVVHEREIPLKYKMKIKCRFQKAYRRALDHEEEALSSGSVQEAEAMLDEPQEQAEGSLTVYVISEHSSLLPQDMMSYIGPKRTAVVRGIMHREAFNIIGRRIVQVAQAMSLTEDVLAAALADHLPEDKWSAEKRRPLKSSLGYEITFSLLNPDPKSHDVYWDIEGAVRRYVQPFLNALGAAGNFSVDSQILYYAMLGVNPRFDSASSSYYLDMHSLPHVINPVESRLGSSAASLYPVLNFLLYVPELAHSPLYIQDKDGAPVATNAFHSPRWGGIMVYNVDSKTYNASVLPVRVEVDMVRVMEVFLAQLRLLFGIAQPQLPPKCLLSGPTSEGLMTWELDRLLWARSVENLATATTTLTSLAQLLGKISNIVIKDDVASEVYKAVAAVQKSAEELASGHLASAFVASQEAVTSSELAFFDPSLLHLLYFPDDQKFAIYIPLFLPMAVPILLSLVKIFLETRKSWRKPEKTD [PIGS] | 0.0826 | 52.6 | 53.1 | -0.13 | 2.4 | 4.4 |
| MLSLRVPLAPITDPQQLQLSPLKGLSLVDKENTPPALSGTRVLASKTARRIFQEPTEPKTKAAAPGVEDEPLLRENPRRFVIFPIEYHDIWQMYKKAEASFWTAEEVDLSKDIQHWESLKPEERYFISHVLAFFAASDGIVNENLVERFSQEVQITEARCFYGFQIAMENIHSEMYSLLIDTYIKDPKEREFLFNAIETMPCVKKKADWALRWIGDKEATYGERVVAFAAVEGIFFSGSFASIFWLKKRGLMPGLTFSNELISRDEGLHCDFACLMFKHLVHKPSEERVREIIINAVRIEQEFLTEALPVKLIGMNCTLMKQYIEFVADRLMLELGFSKVFRVENPFDFMENISLEGKTNFFEKRVGEYQRMGVMSSPTENSFTLDADF [RRM2] | -0.239 | 56.8 | 56.4 | 0.14 | -6.63 | -8.23 |
| MERHQPRLHHPAQGSAAGTPYPSSASLRGCRESKMPRRKGPQHPPPPSGPEEPGEKRPKFHLNIRTLTDDMLDKFASIRIPGSKKERPPLPNLKTAFASSDCSAAPLEMMENFPKPLSENELLELFEKMMEDMNLNEDKKAPLREKDFSIKKEMVMQYINTASKTGSLKRSRQISPQEFIHELKMGSADERLVTCLESLRVSLTSNPVSWVESFGHEGLGLLLDILEKLISGKIQEKVVKKNQHKVIQCLKALMNTQYGLERIMSEERSLSLLAKAVDPRHPNMMTDVVKLLSAVCIVGEESILEEVLEALTSAGEEKKIDRFFCIVEGLRHNSVQLQVACMQLINALVTSPDDLDFRLHIRNEFMRCGLKEILPNLKCIKNDGLDIQLKVFDEHKEEDLFELSHRLEDIRAELDEAYDVYNMVWSTVKETRAEGYFISILQHLLLIRNDYFIRQQYFKLIDECVSQIVLHRDGMDPDFTYRKRLDLDLTQFVDICIDQAKLEEFEEKASELYKKFEKEFTDHQETQAELQKKEAKINELQAELQAFKSQFGALPADCNIPLPPSKEGGTGHSALPPPPPLPSGGGVPPPPPPPPPPPLPGMRMPFSGPVPPPPPLGFLGGQNSPPLPILPFGLKPKKEFKPEISMRRLNWLKIRPHEMTENCFWIKVNENKYENVDLLCKLENTFCCQQKERREEEDIEEKKSIKKKIKELKFLDSKIAQNLSIFLSSFRVPYEEIRMMILEVDETRLAESMIQNLIKHLPDQEQLNSLSQFKSEYSNLCEPEQFVVVMSNVKRLRPRLSAILFKLQFEEQVNNIKPDIMAVSTACEEIKKSKSFSKLLELVLLMGNYMNAGSRNAQTFGFNLSSLCKLKDTKSADQKTTLLHFLVEICEEKYPDILNFVDDLEPLDKASKVSVETLEKNLRQMGRQLQQLEKELETFPPPEDLHDKFVTKMSRFVISAKEQYETLSKLHENMEKLYQSIIGYYAIDVKKVSVEDFLTDLNNFRTTFMQAIKENIKKREAEEKEKRVRIAKELAERERLERQQKKKRLLEMKTEGDETGVMDNLLEALQSGAAFRDRRKRTPMPKDVRQSLSPMSQRPVLKVCNHENQKVQLTEGSRSHYNINCNSTRTPVAKELNYNLDTHTSTGRIKAAEKKEACNVESNRKKETELLGSFSKNESVPEVEALLARLRAL [DIAPH3] | 0.186 | 46.8 | 46.4 | -0.183 | 1.77 | 3.55 |
| MASACGAPGPGGALGSQAPSWYHRDLSRAAAEELLARAGRDGSFLVRDSESVAGAFALCVLYQKHVHTYRILPDGEDFLAVQTSQGVPVRRFQTLGELIGLYAQPNQGLVCALLLPVEGEREPDPPDDRDASDGEDEKPPLPPRSGSTSISAPTGPSSPLPAPETPTAPAAESAPNGLSTVSHDYLKGSYGLDLEAVRGGASHLPHLTRTLATSCRRLHSEVDKVLSGLEILSKVFDQQSSPMVTRLLQQQNLPQTGEQELESLVLKLSVLKDFLSGIQKKALKALQDMSSTAPPAPQPSTRKAKTIPVQAFEVKLDVTLGDLTKIGKSQKFTLSVDVEGGRLVLLRRQRDSQEDWTTFTHDRIRQLIKSQRVQNKLGVVFEKEKDRTQRKDFIFVSARKREAFCQLLQLMKNKHSKQDEPDMISVFIGTWNMGSVPPPKNVTSWFTSKGLGKTLDEVTVTIPHDIYVFGTQENSVGDREWLDLLRGGLKELTDLDYRPIAMQSLWNIKVAVLVKPEHENRISHVSTSSVKTGIANTLGNKGAVGVSFMFNGTSFGFVNCHLTSGNEKTARRNQNYLDILRLLSLGDRQLNAFDISLRFTHLFWFGDLNYRLDMDIQEILNYISRKEFEPLLRVDQLNLEREKHKVFLRFSEEEISFPPTYRYERGSRDTYAWHKQKPTGVRTNVPSWCDRILWKSYPETHIICNSYGCTDDIVTSDHSPVFGTFEVGVTSQFISKKGLSKTSDQAYIEFESIEAIVKTASRTKFFIEFYSTCLEEYKKSFENDAQSSDNINFLKVQWSSRQLPTLKPILADIEYLQDQHLLLTVKSMDGYESYGECVVALKSMIGSTAQQFLTFLSHRGEETGNIRGSMKVRVPTERLGTRERLYEWISIDKDEAGAKSKAPSVSRGSQEPRSGSRKPAFTEASCPLSRLFEEPEKPPPTGRPPAPPRAAPREEPLTPRLKPEGAPEPEGVAAPPPKNSFNNPAYYVLEGVPHQLLPPEPPSPARAPVPSATKNKVAITVPAPQLGHHRHPRVGEGSSSDEESGGTLPPPDFPPPPLPDSAIFLPPSLDPLPGPVVRGRGGAEARGPPPPKAHPRPPLPPGPSPASTFLGEVASGDDRSCSVLQMAKTLSEVDYAPAGPARSALLPGPLELQPPRGLPSDYGRPLSFPPPRIRESIQEDLAEEAPCLQGGRASGLGEAGMSAWLRAIGLERYEEGLVHNGWDDLEFLSDITEEDLEEAGVQDPAHKRLLLDTLQLSK [INPPL1] | 0.0138 | 48.6 | 48.6 | -0.119 | 0.612 | 2.56 |
| MANRGPAYGLSREVQQKIEKQYDADLEQILIQWITTQCRKDVGRPQPGRENFQNWLKDGTVLCELINALYPEGQAPVKKIQASTMAFKQMEQISQFLQAAERYGINTTDIFQTVDLWEGKNMACVQRTLMNLGGLAVARDDGLFSGDPNWFPKKSKENPRNFSDNQLQEGKNVIGLQMGTNRGASQAGMTGYGMPRQIL [TAGLN2] | 0.348 | 50.9 | 51.7 | 0.461 | -1.52 | -1.77 |
| MPKTISVRVTTMDAELEFAIQPNTTGKQLFDQVVKTIGLREVWFFGLQYQDTKGFSTWLKLNKKVTAQDVRKESPLLFKFRAKFYPEDVSEELIQDITQRLFFLQVKEGILNDDIYCPPETAVLLASYAVQSKYGDFNKEVHKSGYLAGDKLLPQRVLEQHKLNKDQWEERIQVWHEEHRGMLREDAVLEYLKIAQDLEMYGVNYFSIKNKKGSELWLGVDALGLNIYEQNDRLTPKIGFPWSEIRNISFNDKKFVIKPIDKKAPDFVFYAPRLRINKRILALCMGNHELYMRRRKPDTIEVQQMKAQAREEKHQKQMERAMLENEKKKREMAEKEKEKIEREKEELMERLKQIEEQTKKAQQELEEQTRRALELEQERKRAQSEAEKLAKERQEAEEAKEALLQASRDQKKTQEQLALEMAELTARISQLEMARQKKESEAVEWQQKAQMVQEDLEKTRAELKTAMSTPHVAEPAENEQDEQDENGAEASADLRADAMAKDRSEEERTTEAEKNERVQKHLKALTSELANARDESKKTANDMIHAENMRLGRDKYKTLRQIRQGNTKQRIDEFESM [MSN] | 0.0519 | 52.1 | 52 | -0.0148 | -0.264 | 1.56 |
| MAAVDLEKLRASGAGKAIGVLTSGGDAQGMNAAVRAVTRMGIYVGAKVFLIYEGYEGLVEGGENIKQANWLSVSNIIQLGGTIIGSARCKAFTTREGRRAAAYNLVQHGITNLCVIGGDGSLTGANIFRSEWGSLLEELVAEGKISETTARTYSHLNIAGLVGSIDNDFCGTDMTIGTDSALHRIMEVIDAITTTAQSHQRTFVLEVMGRHCGYLALVSALASGADWLFIPEAPPEDGWENFMCERLGETRSRGSRLNIIIIAEGAIDRNGKPISSSYVKDLVVQRLGFDTRVTVLGHVQRGGTPSAFDRILSSKMGMEAVMALLEATPDTPACVVTLSGNQSVRLPLMECVQMTKEVQKAMDDKRFDEATQLRGGSFENNWNIYKLLAHQKPPKEKSNFSLAILNVGAPAAGMNAAVRSAVRTGISHGHTVYVVHDGFEGLAKGQVQEVGWHDVAGWLGRGGSMLGTKRTLPKGQLESIVENIRIYGIHALLVVGGFEAYEGVLQLVEARGRYEELCIVMCVIPATISNNVPGTDFSLGSDTAVNAAMESCDRIKQSASGTKRRVFIVETMGGYCGYLATVTGIAVGADAAYVFEDPFNIHDLKVNVEHMTEKMKTDIQRGLVLRNEKCHDYYTTEFLYNLYSSEGKGVFDCRTNVLGHLQQGGAPTPFDRNYGTKLGVKAMLWLSEKLREVYRKGRVFANAPDSACVIGLKKKAVAFSPVTELKKDTDFEHRMPREQWWLSLRLMLKMLAQYRISMAAYVSGELEHVTRRTLSMDKGF [PFKL] | -0.0607 | 58.6 | 58.1 | -0.179 | -1.97 | -2.04 |
